Measured values as given in the supplement of paper PMC9732359.
± gives the uncertainty stated by the source.

Assay: protein stability index of a GFP-peptide fusion (yeast GPS) (PSI 1-4); higher = more stable; sorted into four equal gates, so the index is relative within each strain
Outline: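 For each peptide, the protein stability index sums the read frequency in every gate after multiplying it by the gate number. Read frequencies came from plasmids that were PCR-amplified from each gate and Illumina-sequenced, with reads assigned to strains by barcodes. The gates were four equal bins of GFP/Cherry fluorescence ratio applied to mid-log yeast in leucine-free medium carrying a pooled library of tiled 17-residue yeast protein peptides fused downstream of GFP on a Cherry-expressing plasmid.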

Row | Sequence | protein stability index (doa10∆) | protein stability index (pdr5∆) | protein stability index (san1∆) | protein stability index (ubr1∆)
1 | IEELDNPMVPSSVNEDT [PRP8] | 3.26 ± 0.075 | 3.22 ± 0.065 | 3.33 ± 0.053 | 3.26 ± 0.049
2 | AQRLQISDYQQLESIYF [SWI1] | 2.38 ± 0.05 | 1.95 ± 0.027 | 2.58 ± 0.043 | 2.76 ± 0.046
3 | PKAVVDHINGSGKRKPT [GAL11] | 2.25 ± 0.076 | 2.81 ± 0.064 | 1.52 ± 0.11 | 2.16 ± 0.079
4 | ASAPLCSPKLPVEKVQR [DLS1] | 2.78 ± 0.068 | 3.07 ± 0.067 | 2.92 ± 0.053 | 3.03 ± 0.049
5 | ENYDDTELRQLFQENDD [DSN1] | 2.23 ± 0.072 | 2.63 ± 0.077 | 2.6 ± 0.096 | 2.55 ± 0.13
6 | EELFTQLFHSMSIVFGD [UBP6] | 3.17 ± 0.087 | 3.35 ± 0.087 | 3.38 ± 0.05 | 2.98 ± 0.089
7 | ELKPVSLDNKTLDDLVT [YJL041W/NSP1] | 3.12 ± 0.057 | 3.04 ± 0.063 | 3.09 ± 0.067 | 3.19 ± 0.042
8 | ATFLKDDLPYYVNALAD [QCR2] | 2.37 ± 0.047 | 2.21 ± 0.046 | 2.27 ± 0.053 | 2.35 ± 0.032
9 | AFGLGAIMSKSSLEELL [ECM29] | 1.83 ± 0.089 | 2.07 ± 0.074 | 1.71 ± 0.12 | 2.06 ± 0.052
10 | SKALLREISNFSKGDAD [SRP72] | 3.06 ± 0.26 | 3.41 ± 0.21 |  | 3.77 ± 0.2
11 | KETTIEKLSSEIENLDK [YIL149C/MLP2] | 2.94 ± 0.068 | 2.89 ± 0.071 | 2.9 ± 0.063 | 3.15 ± 0.056
12 | SKDVQQIDYKLESFQAV [RPS7A] | 2.89 ± 0.053 | 3.06 ± 0.059 | 3.08 ± 0.054 | 3.07 ± 0.038
13 | TQIVAKFPETSYPILNE [SIN4] | 2.92 ± 0.091 | 3.02 ± 0.068 | 2.91 ± 0.081 | 2.89 ± 0.057
14 | KSYASLLAQLNGTVNNN [RPT3] | 2.61 ± 0.14 | 1.84 ± 0.11 | 2.2 ± 0.19 | 2.55 ± 0.12
15 | LYFYRDPEEVEQQVAEE [RPS0A] | 3.31 ± 0.087 | 3.31 ± 0.095 | 3.1 ± 0.082 | 3.56 ± 0.076
16 | AVKYGLNHVVSLIENKK [RPL8B] | 2.25 ± 0.079 | 2.37 ± 0.077 | 2.26 ± 0.089 | 2.01 ± 0.047
17 | VISLGPNLATFISSGTS [YJL039C/NUP192] | 2.33 ± 0.061 | 2.64 ± 0.065 | 2.36 ± 0.073 | 2.3 ± 0.046
18 | RAGMTHEDEKLIPTIFR [PRP8] | 3.19 ± 0.085 | 3.28 ± 0.076 | 3.15 ± 0.049 | 3.19 ± 0.05
19 | NDPEILKKIASIPNLFP [SWI1] | 2.36 ± 0.049 | 2.19 ± 0.036 | 2.36 ± 0.058 | 2.53 ± 0.035
20 | LYHHTTKTILSGTDGST [SRP72] | 3.04 ± 0.068 | 2.82 ± 0.051 | 2.49 ± 0.088 | 2.83 ± 0.043
21 | TWIHSEIEELKSSIQNL [SMC3] | 2.27 ± 0.11 | 2.3 ± 0.068 | 2.29 ± 0.21 | 3.08 ± 0.11
22 | TMGGNAELELVDSLDPF [SMC4] | 3.25 ± 0.1 | 3.17 ± 0.086 | 3.39 ± 0.074 | 3.15 ± 0.084
23 | IHKRYIDLEAPVQIVKR [RPS20] | 2.5 ± 0.13 | 2.78 ± 0.15 | 2.51 ± 0.14 | 2.96 ± 0.12
24 | RIIEKSVRRSGALDVEG [RRP45] | 2.43 ± 0.07 | 2.65 ± 0.075 | 2.47 ± 0.11 | 2.53 ± 0.072
25 | TAMKKVEDGNILVFQVS [RPL25] | 2.53 ± 0.049 | 2.48 ± 0.056 | 2.48 ± 0.052 | 2.8 ± 0.044
26 | SKEETVDFIKHSLSQAI [PRE3] | 2.56 ± 0.065 | 2.65 ± 0.063 | 2.66 ± 0.056 | 2.7 ± 0.053

Row | Sequence | protein stability index (doa10∆) | protein stability index (pdr5∆) | protein stability index (san1∆) | protein stability index (ubr1∆)
27 | FGNIQKVVNFWLLHNGF [RPO21] | 2.26 ± 0.18 | 1.83 ± 0.099 | 1.99 ± 0.19 | 1.41 ± 0.073
28 | PDLQFIVISLKNTMFEK [SMC1] | 2.83 ± 0.082 | 2.68 ± 0.071 | 3.01 ± 0.05 | 2.77 ± 0.045
29 | VQPTIGQLPQLPKLNLP [SNF5] | 3.05 ± 0.044 | 2.75 ± 0.046 | 2.49 ± 0.057 | 3.08 ± 0.043
30 | PLQSMDIEQLEYSRDCF [RPB3] | 3.16 ± 0.074 | 3.17 ± 0.068 | 3.21 ± 0.08 | 2.93 ± 0.11
31 | RSPEEIRRTFNIVNDFT [SKP1] | 1.36 ± 0.058 | 2.06 ± 0.094 | 1.53 ± 0.13 | 2.12 ± 0.04
32 | SKYCEKSLPLLITVMEK [YCS4] | 1.76 ± 0.052 | 1.86 ± 0.048 | 2.12 ± 0.067 | 1.87 ± 0.039
33 | CKEVGITAVHVKIRATG [RPS14A] | 1.93 ± 0.043 | 1.82 ± 0.039 | 1.81 ± 0.085 | 1.89 ± 0.035
34 | IGWCKEDPKRRADTMDF [YJL039C/NUP192] | 3.16 ± 0.21 | 3.56 ± 0.11 | 3.47 ± 0.13 | 3.39 ± 0.12
35 | LASSFVNGFLNLGYCND [RPN1] | 3.2 ± 0.1 | 3.33 ± 0.097 | 3.27 ± 0.049 | 3.17 ± 0.082
36 | IGQSEELSDKEIYTVED [ISW2] | 3.35 ± 0.13 | 3.46 ± 0.14 | 3.31 ± 0.17 | 3.44 ± 0.13
37 | ENDLSFALMRYYDRKEE [RRI2] | 3.12 ± 0.13 | 2.88 ± 0.12 | 2.97 ± 0.071 | 2.98 ± 0.073
38 | NSCFSDGSQQNLQQDKT [REC8] | 2.77 ± 0.09 | 2.76 ± 0.13 | 2.18 ± 0.2 | 2.88 ± 0.059
39 | PTPAIIKPKPLWSGKQI [RPO21] | 2 ± 0.11 | 2.5 ± 0.093 | 2.48 ± 0.08 | 2.54 ± 0.098
40 | VTLVNGKRRMNPGPSVQ [RPS30A] | 2.69 ± 0.049 | 2.94 ± 0.031 | 2.81 ± 0.047 | 2.87 ± 0.033
41 | FGKLLQAYQFLNTFGSK [ITC1] | 1.5 ± 0.064 | 1.26 ± 0.073 | 1.19 ± 0.12 | 1.31 ± 0.094
42 | KKEEELGVKSRLLEKSE [SNF2] |  | 3.01 ± 0.14 | 3.06 ± 0.2 | 3.04 ± 0.29
43 | MPGVSVRDVAAQDFINA [RPS19A] | 1.81 ± 0.12 | 1.31 ± 0.12 |  | 1.16 ± 0.11
44 | EYALPKTYNKLHYCVSC [RPS26A] | 1.24 ± 0.069 | 1.42 ± 0.055 | 1.34 ± 0.12 | 1.41 ± 0.04
45 | IKILGSEGYQKTFSRLD [RPN4] | 1.28 ± 0.089 | 1.55 ± 0.15 | 1.05 ± 0.24 | 
46 | KNKGLVVSPYDYNHKRV [DIB1] | 3.18 ± 0.12 | 3.19 ± 0.11 | 3.02 ± 0.14 | 3.35 ± 0.17
47 | ALENDVATNIVNEDPIF [YML103C/NUP188] | 2.94 ± 0.051 | 3.1 ± 0.068 | 3.04 ± 0.052 | 3.05 ± 0.048
48 | WLKEYEDETLRRIKEAE [YIL149C/MLP2] | 2.83 ± 0.11 | 3.19 ± 0.12 | 3.17 ± 0.069 | 3.44 ± 0.11
49 | TRMQRGHRADVGGQFSK [REC8] | 2.98 ± 0.13 | 3.32 ± 0.13 | 3.27 ± 0.074 | 3.39 ± 0.12
50 | NNNGNSAASKKKKNKNK [SRP21] | 3.09 ± 0.092 | 3 ± 0.12 | 3.15 ± 0.057 | 3.14 ± 0.057
51 | SFTYELKQHNQNNLPPN [BRR2] | 2.95 ± 0.094 | 3.21 ± 0.087 | 2.78 ± 0.1 | 2.9 ± 0.12
52 | LCDLFVNGSITDQLIQN [NUT1] |  | 2.11 ± 0.22 | 1.76 ± 0.21 | 3.44 ± 0.29
